Here are results for three molecules from patent US20250152724A1, “ANTIBODY CONJUGATES SPECIFIC FOR MUCIN-1 AND METHODS OF USE THEREOF” (R.P. Scherer Technologies, LLC, priority 2022, published 2025).

One data set has as its system decoy peptide. Put plainly: MUC1 ELISA. The format is binding. The following applies: FIGS. 2A-2C. The method, then:
(§1) MUC1 ELISA: Antigens were coated directly on a Streptavidin (Pierce, 15500) or Maxisorp (VWR, 62409-024) 96-well plate at 100 ng/well in PBS. Coated plates were incubated at 4° C. overnight. The plates were blocked with casein blocking buffer (Thermo Fisher, 37528) and washed with PBS-Tween-20. Antibodies were serially diluted in PBS, added to the coated wells and incubated for 1 h at room temperature with shaking. To test for stickiness, antibodies were also added to uncoated, blocked wells. Peroxidase (HRP)-conjugated anti-Fc secondary (Jackson Immunoresearch, #109-035-098) was used for detection, followed by a […] substrate (Thermo Fisher, 34028) and H2SO4 quench. Absorbance was read at 450 nm on a Molecular Devices plate reader.
(§2) 20mer MUC1 glycosylated-biotin refers to a peptide comprising the sequence […] (SEQ ID NO:26) with Tn (GalNac) antigen or sialyl Tn (Neu5Acα2-6GalNAc) antigen modifications on some of the S/T residues, where biotin in conjugated to the N-terminus. 60mer MUC1 non-glycosylated-biotin refers to a peptide comprising the sequence […] (SEQ ID NO:27), where biotin in conjugated to the N-terminus. Decoy peptide refers to a peptide comprising the sequence […] (SEQ ID NO:28), with Tn (GalNac) antigen or sialyl Tn (Neu5Acα2-6GalNAc) antigen modifications on some of the S/T residues.
(In general: ELISA stands for enzyme-linked immunosorbent assay.)

In data set [1] the target is recombinant 20mer MUC1 glycosylated-biotin (Homo sapiens, UniProt P15941). Put plainly: MUC1 ELISA. It counts as binding. The following applies: FIGS. 2A-2C. The method, then: as §1, §2
In data set [2] the target is recombinant 60mer MUC1 non-glycosylated-biotin (Homo sapiens, UniProt P15941). Put plainly: MUC1 ELISA. It counts as binding. The following applies: FIGS. 2A-2C. As for the experimental part:
as §1, §2

The nature of data set [3]: analytical size exclusion chromatography (SEC) to determine aggregation. The format is physicochemical. The following applies: unconjugated antibodies; mobile phase 300 mM NaCl, 25 mM sodium phosphate pH 6.8. As for the experimental part:
SEC HPLC: To determine aggregation, samples were analyzed using analytical size exclusion chromatography (SEC; Tosoh #08541) with a mobile phase of 300 mM NaCl, 25 mM sodium phosphate pH 6.8.
Methods. Antibodies (15 mg/mL) bearing one aldehyde tag were conjugated to linker-payloads at 1.1 mM, respectively. Reactions proceeded for 72 h at 37° C. in 20 mM sodium citrate, 50 mM NaCl pH 5.5 (20/50 buffer) containing 0.85-2.5% DMA. After conjugation, free drug was removed using a 30 kD MWCO 0.5 mL Amicon spin concentrator. Samples were added to the spin concentrator, centrifuged at 15,000×g for 7 min, then diluted with 450 μL 20 mM sodium citrate, 50 mM NaCl pH 5.5 and centrifuged again. The process was repeated 10 times. To determine the DAR of the final product, ADCs were examined by analytical chromatography using hydrophobic interaction (HIC) (Tosoh #14947) or PLRP-RP (Agilent PL1912-1802 1000A, 8 μm, 50×2.1 mm) columns. HIC analysis used mobile phase A: 1.5 M ammonium sulfate, 25 mM sodium phosphate pH 7.0, and mobile phase B: 25% isopropanol, 18.75 mM sodium phosphate pH 7.0. […] To determine aggregation, samples were analyzed using analytical size exclusion chromatography (SEC; Tosoh #08541) with a mobile phase of 300 mM NaCl, 25 mM sodium phosphate pH 6.8 with 5% isopropanol.
For orientation: In gel filtration, larger molecules generally elute earlier.

decoy peptide, sequence (as listed by the source): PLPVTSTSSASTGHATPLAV
recombinant 20mer MUC1 glycosylated-biotin, sequence (P15941 138-157): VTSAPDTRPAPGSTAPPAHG
recombinant 60mer MUC1 non-glycosylated-biotin, sequence (P15941 138-197): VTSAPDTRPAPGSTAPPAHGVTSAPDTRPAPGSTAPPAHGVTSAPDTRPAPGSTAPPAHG

B1: MUC1 H02: anti-MUC1 monoclonal antibody; VH SEQ ID NO:1, VL SEQ ID NO:4 (antibody, V domains shown)
VH: EVQLVQSGAEVKKPGATVKISCKVSGYTFTDHTMHWIKQRPGKGLEWMGYFYPRDDSTNYNEKFKGRVTLTADKSTDTAYMELSSLRSEDTAVYYCARGLRYALDYWGQGTLVTVSS
VL: EIVLTQSPATLSLSPGERATLSCRASSSVSSSYLYWYQQKPGQAPRLWIIGTSNLASGVPARFSGSGSGTDYTLTISSLEPEDAAVYYCHQYSWSPPTFGQGTKLEIK
As to B1, in the data set on decoy peptide, the “binding to decoy peptide as assessed by ELISA” value (“binding to decoy peptide” for short) is “not”. Further, in data set [1], the “binding to recombinant 20mer MUC1 glycosylated-biotin as assessed by ELISA” value is recorded as “bind”. Besides, the “binding to recombinant 60mer MUC1 non-glycosylated-biotin as assessed by ELISA” value in data set [2] was “not”. Further, in data set [3], the “monomeric as determined by SEC” value is “more than 98%”.

B2: MUC1 G12: anti-MUC1 monoclonal antibody; VH SEQ ID NO:1, VL SEQ ID NO:3 (antibody, V domains shown)
VH: EVQLVQSGAEVKKPGATVKISCKVSGYTFTDHTMHWIKQRPGKGLEWMGYFYPRDDSTNYNEKFKGRVTLTADKSTDTAYMELSSLRSEDTAVYYCARGLRYALDYWGQGTLVTVSS
VL: EIVLTQSPATLSLSPGERATLSCRASSSVGSSNLYWYQQKPGQAPRLWIYRSTKLASGVPARFSGSGSGTDYTLTISSLEPEDAAVYYCHQYRWSPPTFGQGTKLEIK
B2: in the data set with decoy peptide, the “binding to decoy peptide” value is on record as “not”. The “binding to recombinant 20mer MUC1 glycosylated-biotin as assessed by ELISA” value in data set [1] is “bind”. For the same molecule, in data set [2], the “binding to recombinant 60mer MUC1 non-glycosylated-biotin as assessed by ELISA” value is “not”.

B3: MUC1 gB06: anti-MUC1 monoclonal antibody; VH SEQ ID NO:1, VL SEQ ID NO:2 (antibody, V domains shown)
VH: EVQLVQSGAEVKKPGATVKISCKVSGYTFTDHTMHWIKQRPGKGLEWMGYFYPRDDSTNYNEKFKGRVTLTADKSTDTAYMELSSLRSEDTAVYYCARGLRYALDYWGQGTLVTVSS
VL: EIVLTQSPATLSLSPGERATLSCRASSSVSSSYLYWYQQKPGQAPRLWIYGTSNLASGVPARFSGSGSGTDYTLTISSLEPEDAAVYYCHQYAWSPPTFGQGTKLEIK
With B3, in the data set on decoy peptide, the “binding to decoy peptide” value is reported as “not”. In addition, the “binding to recombinant 20mer MUC1 glycosylated-biotin as assessed by ELISA” value in data set [1] was “bind”. In addition, in data set [2], the “binding to recombinant 60mer MUC1 non-glycosylated-biotin as assessed by ELISA” value is “not”.
